Data as given in publication PMC9114490.

Molecular target: Purified human C1q, P02745;P02746;P02747
Experiment: FACS-based C1q binding assay
Conditions: for response: read off a plot

## 4A8 Parental E345R; E430G
  EC50: 26.1 nM
parent: est. 65000
  response: 750000 MFI

## REGN10933 Parental E345R; E430G
  EC50: 4 nM
parent: est. 42000
  response: 800000 MFI

## S230 parental IgG1 E345R; E430G
parent: est. 30000
  response: 50000 MFI

## S309 parental IgG1 E345R; E430G
  EC50: 10 nM
parent: est. 42000
  response: 800000 MFI

## REGN10987 Parental E345R; E430G
  EC50: 10.5 nM
parent: est. 85000
  response: 830000 MFI

## EY6A Parental E345R; E430G
  EC50: 42.1 nM
parent: est. 75000
  response: 830000 MFI
